Assay [1] addresses T1, D152R IL-17RA mutant (human, UniProt Q96F46 33-320).
T1 construct: Arginine scan mutant of huIL-17RA-FLAG-polyHis; also called huIL-17RA-FLAG-polyHis D152R
Put plainly: Bio-Plex titration on His-captured D152R IL-17RA mutant; signal as percent of maximum wild-type MFI.
Procedure: Twelve bead codes of pentaHis-coated beads (Qiagen, Valencia, Calif.; see www1.qiagen.com) were used to capture histidine-tagged protein.
To prepare the beads, 100 ul of wild-type IL-17RA and IL-17RA arginine mutant supernatants from transient expression culture were bound to penta-His-coated beads overnight at 4° C. or 2 hours at room temperature with vigorous shaking. The beads were washed as per the manufacturer's protocol and the 12 bead set was pooled and aliquoted into 2 or 3 columns of a 96-well filter plate (Millipore, Bellerica, Mass., product #MSBVN1250) for duplicate or triplicate assay points, respectively. 100 ul anti-IL-17RA antibodies in 4-fold dilutions were added to the wells, incubated for 1 hour at room temperature, and washed. […] Beads were resuspended in 1% BSA, shaken for 3 minutes, and read on the Bio-Plex workstation. Antibody binding to IL-17RA arginine mutant protein was compared to antibody binding to the human IL-17RA wild-type from the same pool. A titration of antibody over approximately a 5 log scale was performed. Median Fluorescence Intensity (MFI) of IL-17RA arginine mutant proteins was graphed as a percent of maximum wild-type human IL-17RA signal.

In assay [2] the target is T2, cynomolgus IL-17RA on the cell surface (cynomolgus).
T2 construct: whole, on cells; also called CHO-cynoIL-17RA; cyno IL-17RA+ CHO cells
Briefly: FACS competition, non-clonal hybridoma supernatant vs biotin-huIL-17A (500 ng/ml) on cyno IL-17RA+ cells; lower = more inhibition.

Assay [3] deals with T2, cynomolgus IL-17RA on the cell surface. Put plainly: FACS competition, non-clonal hybridoma supernatant vs biotin-huIL-17A (500 ng/ml) on cynomolgus IL-17RA+ CHO cells; lower = more inhibition.
Procedure: Non-clonal hybridoma supernatants were prepared in volumes of 1-2 mls (the Ig concentrations were not determined for these supernatants). […] Anti-IL-17RA non-clonal hybridomas were selected for sub-cloning based on their performance in the CHO-IL-17RA FACS assay and HFF bioassay.
For assay [4] the target is unchanged. Put plainly: FACS competition, non-clonal hybridoma supernatant vs biotin-huIL-17A (500 ng/ml) on cyno IL-17RA+ CHO cells; lower = more inhibition.
Procedure: The anti-IL-17RA antibodies were characterized. Non-clonal hybridoma supernatants were prepared in volumes of 1-2 mls (the Ig concentrations were not determined for these supernatants).
Assay [5] shares this target. Briefly: cell-based or functional assay.

T1 sequence (Q96F46 other isoform, or with tags, fused parts or gaps D152R D152R limits assumed): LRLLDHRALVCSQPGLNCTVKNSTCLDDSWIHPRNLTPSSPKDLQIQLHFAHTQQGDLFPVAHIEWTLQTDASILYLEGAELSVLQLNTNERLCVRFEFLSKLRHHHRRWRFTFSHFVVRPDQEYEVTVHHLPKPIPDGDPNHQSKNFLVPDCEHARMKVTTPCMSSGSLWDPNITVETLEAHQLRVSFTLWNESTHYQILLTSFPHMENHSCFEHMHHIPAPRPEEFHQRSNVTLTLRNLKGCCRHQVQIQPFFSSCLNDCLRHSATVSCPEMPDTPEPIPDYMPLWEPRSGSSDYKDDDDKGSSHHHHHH

B1: AMH18/AML18 (antibody, IgG2, V domains shown)
VH: QVQLVQSGAEVKKPGASVKVSCKASGYSFTDYYMHWVRQAPGQGLEWMGWMHPNSGGTDLAQRFQGRVTMTRDTSISTAYMELSRLRSDDTAVYYCARGGYCSTLSCSFYWYFDLWGRGTLVTVSS
VL: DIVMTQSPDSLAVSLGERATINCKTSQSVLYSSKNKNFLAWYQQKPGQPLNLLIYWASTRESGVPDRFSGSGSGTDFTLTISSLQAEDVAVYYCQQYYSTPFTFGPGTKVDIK
notes: also called AM-18
As for B1, the “EC50 (read off the curve)” value in assay [1] is around 0.08 nM.

B2: AMH11/AML11 (antibody, IgG2, V domains shown)
VH: QVQLVESGGGVVQPGRSLRLSCATSGITFSSYGMHWVRQAPGKGLEWVAVIWYDGSNKYYADSVKGRFTISRDNSKNTLYLQMNSLRAEDTAVYYCARDTKDYWGQGTLVTVSS
VL: EIVMTQSPATLSVSPGERATLSCRASQSVSSNLAWYQQKPGQAPRLLIYGASTRAAGIPARFSGGGSGTAFTLTISNLQSEDFAVYYCQHYINWPKWTFGQGTKVDIK
notes: also called AM-11
Turning to B2, the MFI in assay [2] was found to be 9.

B3: AMH5/AML5 (antibody, IgG2, V domains shown)
VH: QVQLQESGPGLVKPSETLPLTCTVSGGSIRSYYWSWIRQPAGKGLEWIGRIYRSGNTIYNPSLKSRVTMSIDTSKNQFSLTLSSVTAADTAVYYCARENYSESSGLYYYYGMDVWGQGTTVTVSS
VL: DIQMTQSPSSLSASVGDRVTITCRASQGIRNDLGWYQQKPGKAPKRLIYAASSFQSGVPSRFSGSGSGTGFTLTISSLQPEDFATYYCLQHNSYPPTFGQGTKVEIK
notes: IgG2 XenoMouse; also called AM-5
B3: in assay [2], the MFI worked out at 9.

B4: AMH1/AML1 (antibody, V domains shown)
VH: QVQLQESGPGLVKPSETLSLTCTVSGGSISNYYWNWIRQSPGKGLEWIGDIYYSGSTNYNPSLKSRVTISVDTSKNQFSLKLSSVTTADTAVYYCARDGELANYYGSGSYQFYYYYGMDVWGQGTTVTVSS
VL: DILMTQSPSSLSASVGDRVTITCRASQGIRNDLGWYQQKPGKAPKRLIYAASSLQSGVPSRFSGSGSGTEFTLTISSLQPEDFATYYCLQHNSNPFTFGPGTKVDIK
notes: also called AM-1
Molecule B4 gave an MFI in assay [2] of 11.

B5: AMH13/AML13 (antibody, IgG2, V domains shown)
VH: QVQLVESGGGVVQPGRSLRLSCAASGFTFSSYGMQWVRQAPGKGLEWVAVIWYDGNKKYYADSVKGRFTISRDNSKNTLYLQMNSLRAEDTAVYYCARGRVRDYYYGMDVWGQGTTVTVSS
VL: DIVMTQTPLSLSVTPGQPASIACKSSQSLLHSDGKTYLYWYLQKPGQPPQLLIYEVSTRFSGVPDRFSGSGSGTDFTLKISRVEAEDVGVFYCMQSIQLPLTFGGGTKVEIK
notes: also called AM-13
B5 displayed an MFI in assay [3] of 6.

B6: AMH21/AML21 (antibody, IgG2, V domains shown)
VH: EVQLVESGGGSVQPGGSLRLSCAASGFTFSSYSMNWVRQAPGKGLEWVSIISSRSSIIHYADSVKGRFTISRDNAKNSLYLQMNSLRDEDTAVYYCARPKVGGGMDVWGQGTTVTVSS
VL: DIQMTQSPSSLSASVGDRVTITCRASQGISNYLAWYQQKPGKFPELLIYAASTLQSGVPSRFSGSGSGTDFTLTISSLQPEDVATYYCQKYNRAPFTFGPGTKVDIK
notes: also called AM-21
In assay [4], B6 yielded an MFI of 6.

B7: AMH22/AML22 (antibody, IgG2, V domains shown)
VH: QVQLVQSGAEVKKPGASVKVSCKASGYTFTRYGISWVRQAPGQGLEWMGWISAYSGNTNYAQKLQGRVTMTTDTSTSTAYMELRSLRSDDTAVYYCARRQLYFDYWGQGTLVTVSS
VL: EIVMTQSPATLSVSPGERVTLSCRASQSVSSNLAWFQQKPGQAPRPLIYDASTRAAGIPARFSGSGSGTDFTLTISSLQSEDFAVYYCQQYDNWPLTFGGGTKVEIK
notes: also called AM-22
Take B7: in assay [2], the MFI worked out at 18.

B8: AMH17/AML17 (antibody, V domains shown)
VH: QVQLVQSGAEVKKPGAAVKVSCKATGYTLTSYGISWVRQAPGQGLEWMGWISAYSGNTKYAQKLQGRVTMTTDTSTSTAYMELRSLRSDDTAVYYCARKQLVFDYWGQGTLVTVSS
VL: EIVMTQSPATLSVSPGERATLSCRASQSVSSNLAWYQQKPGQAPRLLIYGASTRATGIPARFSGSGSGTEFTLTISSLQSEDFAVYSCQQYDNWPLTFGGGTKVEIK
notes: also called AM-17
As for B8, the MFI in assay [3] was 8.

B9: AMH15/AML15 (antibody, IgG2, V domains shown)
VH: QVQLVESGGGVVQPGRSLRLSCAASGFTFSSYGMQWVRQAPGKGLEWVAVIWYDGNKKYYADSVKGRFTISRDNSKNTLYLQMNSLRAEDTAVYYCARGRVRDYYYGMDVWGQGTTVTVSS
VL: EIVMTQSPATLSVSPGERVTLSCRASQSVSSNLAWFQQKPGQAPRPLIYDASTRAAGIPARFSGSGSGTDFTLTISSLQSEDFAVYYCQQYDNWPLTFGGGTKVEIK
notes: IgG2 XenoMouse; also called AM-15
B9 registered an MFI in assay [4] of 6.

B10: AMH12/AML12 (antibody, IgG2, V domains shown)
VH: QVQLVQSGAEVKKPGASVKVSCKASGYTLTSYGISWVRQAPGQGLEWMGWISTYKGNTNYAQKLQGRVTMTTDTSTSTAYMELRSLRSDDTAVYYCARKQLVFDYWGQGTLVTVSS
VL: EIVMTQSPATLSVSPGERATLSCRASQSISSSLAWYQQKPGQAPRLLIYGASTRATGIPARFSGSGSGTEFTLTISSLQSENFAVYYCQQYDNWPLTFGGGTKVEIK
notes: also called AM-12
Molecule B10 registered an MFI in assay [3] of 6.

B11: AMH14/AML14 (antibody, IgG2, V domains shown)
VH: QVQLVQSGAEVKKPGASVKVSCKASGYTFTRYGISWVRQAPGQGLEWMGWISTYSGNTNYAQKLQGRVTMTTDTSTSTAYMELRSLRSDDTAVYYCARRQLYFDYWGQGTLVTVSS
VL: EIVMTQSPATLSVSPGERATLSCRASQSVSSNLAWFQQKPGQAPRPLIYDASTRATGVPARFSGSGSGTDFTLTISSLQSEDFAVYYCQQYDNWPLTFGGGTKVEIK
notes: Fully human mAb from IgG2 XenoMouse mice; also called AM-14
Take B11: the “IC50, cynomolgous IL-17A-induced IL-6 production from JTC-12 cells” value in assay [5] is around 1.2 nM. In assay [4], this molecule returned an MFI of 10.

B12: AMH16/AML16 (antibody, IgG2, V domains shown)
VH: QVQLVQSGAEVKKPGASVKVSCKASGYTFTSYGISWVRQAPGQGLEWMGWISAYNGNTKYAQKLQGRVTMTTDTSTSTVYMELRSLRSDDTAVYYCARKQLVFDYWGQGTLVTVSS
VL: EIVMTQSPATLSVSPGERATLSCRASQSISTSLAWYQQKPGQAPRLLIYGTSTRATGIPARFSGSGSGTEFTLTISSLQSEDFAVYFCQQYDIWPLTFGGGTKVEIK
notes: also called AM-16
In turn, B12 yielded an MFI in assay [3] of 6.

For orientation: EC50 (read off the curve) means the midpoint of the concentration-response curve.
